Laboratory results published in patent US20100130424A1 (Janssen / Centocor, published 2010).
No end group written: not given here. *: point of attachment. Succinimide(1-Et,3-yl) = CCN1C(=O)CC(*)C1=O

T1: human CRH receptor type 2 (human, UniProt Q13324 1-411)
T1 sequence (looked up): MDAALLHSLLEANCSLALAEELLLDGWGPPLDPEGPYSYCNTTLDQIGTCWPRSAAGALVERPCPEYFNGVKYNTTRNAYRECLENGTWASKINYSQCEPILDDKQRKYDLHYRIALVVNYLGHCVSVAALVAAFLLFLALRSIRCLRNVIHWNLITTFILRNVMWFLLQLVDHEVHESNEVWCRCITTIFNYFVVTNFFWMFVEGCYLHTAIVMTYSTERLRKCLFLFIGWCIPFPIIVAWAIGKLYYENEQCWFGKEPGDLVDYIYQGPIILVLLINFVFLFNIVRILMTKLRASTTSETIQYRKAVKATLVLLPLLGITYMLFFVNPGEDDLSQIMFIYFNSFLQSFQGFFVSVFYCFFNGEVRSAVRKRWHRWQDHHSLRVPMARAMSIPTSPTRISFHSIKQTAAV

B1: Cys-variant of stresscopin peptide with N-Ethylsuccinimide (NES) reactive group, SEQ ID NO: 46 (peptide)
peptide: TKFTLSLDVPTNIMNLLFNIAKAKNLRAQAC(Succinimide(1-Et,3-yl))ANAHLMAQI-NH2
modifications: N-terminus assumed
SMILES: CC[C@H](C)[C@H](NC(=O)[C@H](CCC(N)=O)NC(=O)[C@H](C)NC(=O)[C@H](CCSC)NC(=O)[C@H](CC(C)C)NC(=O)[C@H](Cc1c[nH]cn1)NC(=O)[C@H](C)NC(=O)[C@H](CC(N)=O)NC(=O)[C@H](C)NC(=O)[C@H](CSC1CC(=O)N(CC)C1=O)NC(=O)[C@H](C)NC(=O)[C@H](CCC(N)=O)NC(=O)[C@H](C)NC(=O)[C@H](CCCNC(=N)N)NC(=O)[C@H](CC(C)C)NC(=O)[C@H](CC(N)=O)NC(=O)[C@H](CCCCN)NC(=O)[C@H](C)NC(=O)[C@H](CCCCN)NC(=O)[C@H](C)NC(=O)[C@@H](NC(=O)[C@H](CC(N)=O)NC(=O)[C@H](Cc1ccccc1)NC(=O)[C@H](CC(C)C)NC(=O)[C@H](CC(C)C)NC(=O)[C@H](CC(N)=O)NC(=O)[C@H](CCSC)NC(=O)[C@@H](NC(=O)[C@H](CC(N)=O)NC(=O)[C@@H](NC(=O)[C@@H]1CCCN1C(=O)[C@@H](NC(=O)[C@H](CC(=O)O)NC(=O)[C@H](CC(C)C)NC(=O)[C@H](CO)NC(=O)[C@H](CC(C)C)NC(=O)[C@@H](NC(=O)[C@H](Cc1ccccc1)NC(=O)[C@H](CCCCN)NC(=O)[C@@H](N)[C@@H](C)O)[C@@H](C)O)C(C)C)[C@@H](C)O)[C@@H](C)CC)[C@@H](C)CC)C(N)=O
B2: Pegylated Cys-variant CRHR2 peptide agonist (NES-PEG MW40000), SEQ ID NO: 100 (peptide)
peptide: TKFTLSLDVPTNIMNLLFNIAKAKNLRCQAAANAHLMAQI
modifications: NES-PEG MW40000 on Cys 28; C-terminal amide
B3: Cys-variant of stresscopin peptide with N-Ethylsuccinimide (NES) reactive group, SEQ ID NO: 47 (peptide)
peptide: TKFTLSLDVPTNIMNLLFNIAKAKNLRC(Succinimide(1-Et,3-yl))QAAANAHLMAQI-NH2
modifications: N-terminus assumed
SMILES: CC[C@H](C)[C@H](NC(=O)[C@H](CCC(N)=O)NC(=O)[C@H](C)NC(=O)[C@H](CCSC)NC(=O)[C@H](CC(C)C)NC(=O)[C@H](Cc1c[nH]cn1)NC(=O)[C@H](C)NC(=O)[C@H](CC(N)=O)NC(=O)[C@H](C)NC(=O)[C@H](C)NC(=O)[C@H](C)NC(=O)[C@H](CCC(N)=O)NC(=O)[C@H](CSC1CC(=O)N(CC)C1=O)NC(=O)[C@H](CCCNC(=N)N)NC(=O)[C@H](CC(C)C)NC(=O)[C@H](CC(N)=O)NC(=O)[C@H](CCCCN)NC(=O)[C@H](C)NC(=O)[C@H](CCCCN)NC(=O)[C@H](C)NC(=O)[C@@H](NC(=O)[C@H](CC(N)=O)NC(=O)[C@H](Cc1ccccc1)NC(=O)[C@H](CC(C)C)NC(=O)[C@H](CC(C)C)NC(=O)[C@H](CC(N)=O)NC(=O)[C@H](CCSC)NC(=O)[C@@H](NC(=O)[C@H](CC(N)=O)NC(=O)[C@@H](NC(=O)[C@@H]1CCCN1C(=O)[C@@H](NC(=O)[C@H](CC(=O)O)NC(=O)[C@H](CC(C)C)NC(=O)[C@H](CO)NC(=O)[C@H](CC(C)C)NC(=O)[C@@H](NC(=O)[C@H](Cc1ccccc1)NC(=O)[C@H](CCCCN)NC(=O)[C@@H](N)[C@@H](C)O)[C@@H](C)O)C(C)C)[C@@H](C)O)[C@@H](C)CC)[C@@H](C)CC)C(N)=O
B4: Pegylated Cys-variant CRHR2 peptide agonist (NES-PEG MW80000 & BRANCHED), SEQ ID NO: 101 (peptide)
peptide: TKFTLSLDVPTNIMNLLFNIAKAKNLRCQAAANAHLMAQI
modifications: NES-PEG MW80000, branched, on Cys 28; C-terminal amide
B5: Cys-variant of stresscopin peptide with N-Ethylsuccinimide (NES) reactive group, SEQ ID NO: 48 (peptide)
peptide: TKFTLSLDVPTNIMNLLFNIAKAKNC(Succinimide(1-Et,3-yl))RAQAAANAHLMAQI-NH2
modifications: N-terminus assumed
SMILES: CC[C@H](C)[C@H](NC(=O)[C@H](CCC(N)=O)NC(=O)[C@H](C)NC(=O)[C@H](CCSC)NC(=O)[C@H](CC(C)C)NC(=O)[C@H](Cc1c[nH]cn1)NC(=O)[C@H](C)NC(=O)[C@H](CC(N)=O)NC(=O)[C@H](C)NC(=O)[C@H](C)NC(=O)[C@H](C)NC(=O)[C@H](CCC(N)=O)NC(=O)[C@H](C)NC(=O)[C@H](CCCNC(=N)N)NC(=O)[C@H](CSC1CC(=O)N(CC)C1=O)NC(=O)[C@H](CC(N)=O)NC(=O)[C@H](CCCCN)NC(=O)[C@H](C)NC(=O)[C@H](CCCCN)NC(=O)[C@H](C)NC(=O)[C@@H](NC(=O)[C@H](CC(N)=O)NC(=O)[C@H](Cc1ccccc1)NC(=O)[C@H](CC(C)C)NC(=O)[C@H](CC(C)C)NC(=O)[C@H](CC(N)=O)NC(=O)[C@H](CCSC)NC(=O)[C@@H](NC(=O)[C@H](CC(N)=O)NC(=O)[C@@H](NC(=O)[C@@H]1CCCN1C(=O)[C@@H](NC(=O)[C@H](CC(=O)O)NC(=O)[C@H](CC(C)C)NC(=O)[C@H](CO)NC(=O)[C@H](CC(C)C)NC(=O)[C@@H](NC(=O)[C@H](Cc1ccccc1)NC(=O)[C@H](CCCCN)NC(=O)[C@@H](N)[C@@H](C)O)[C@@H](C)O)C(C)C)[C@@H](C)O)[C@@H](C)CC)[C@@H](C)CC)C(N)=O
B6: Cys-variant of stresscopin peptide with N-Ethylsuccinimide (NES) reactive group, SEQ ID NO: 49 (peptide)
peptide: TKFTLSLDVPTNIMNLLFNIAKAKC(Succinimide(1-Et,3-yl))LRAQAAANAHLMAQI-NH2
modifications: N-terminus assumed
SMILES: CC[C@H](C)[C@H](NC(=O)[C@H](CCC(N)=O)NC(=O)[C@H](C)NC(=O)[C@H](CCSC)NC(=O)[C@H](CC(C)C)NC(=O)[C@H](Cc1c[nH]cn1)NC(=O)[C@H](C)NC(=O)[C@H](CC(N)=O)NC(=O)[C@H](C)NC(=O)[C@H](C)NC(=O)[C@H](C)NC(=O)[C@H](CCC(N)=O)NC(=O)[C@H](C)NC(=O)[C@H](CCCNC(=N)N)NC(=O)[C@H](CC(C)C)NC(=O)[C@H](CSC1CC(=O)N(CC)C1=O)NC(=O)[C@H](CCCCN)NC(=O)[C@H](C)NC(=O)[C@H](CCCCN)NC(=O)[C@H](C)NC(=O)[C@@H](NC(=O)[C@H](CC(N)=O)NC(=O)[C@H](Cc1ccccc1)NC(=O)[C@H](CC(C)C)NC(=O)[C@H](CC(C)C)NC(=O)[C@H](CC(N)=O)NC(=O)[C@H](CCSC)NC(=O)[C@@H](NC(=O)[C@H](CC(N)=O)NC(=O)[C@@H](NC(=O)[C@@H]1CCCN1C(=O)[C@@H](NC(=O)[C@H](CC(=O)O)NC(=O)[C@H](CC(C)C)NC(=O)[C@H](CO)NC(=O)[C@H](CC(C)C)NC(=O)[C@@H](NC(=O)[C@H](Cc1ccccc1)NC(=O)[C@H](CCCCN)NC(=O)[C@@H](N)[C@@H](C)O)[C@@H](C)O)C(C)C)[C@@H](C)O)[C@@H](C)CC)[C@@H](C)CC)C(N)=O
B7: Cys-variant of stresscopin peptide with N-Ethylsuccinimide (NES) reactive group, SEQ ID NO: 50 (peptide)
peptide: TKFTLSLDVPTNIMNLLFNIAKAC(Succinimide(1-Et,3-yl))NLRAQAAANAHLMAQI-NH2
modifications: N-terminus assumed
SMILES: CC[C@H](C)[C@H](NC(=O)[C@H](CCC(N)=O)NC(=O)[C@H](C)NC(=O)[C@H](CCSC)NC(=O)[C@H](CC(C)C)NC(=O)[C@H](Cc1c[nH]cn1)NC(=O)[C@H](C)NC(=O)[C@H](CC(N)=O)NC(=O)[C@H](C)NC(=O)[C@H](C)NC(=O)[C@H](C)NC(=O)[C@H](CCC(N)=O)NC(=O)[C@H](C)NC(=O)[C@H](CCCNC(=N)N)NC(=O)[C@H](CC(C)C)NC(=O)[C@H](CC(N)=O)NC(=O)[C@H](CSC1CC(=O)N(CC)C1=O)NC(=O)[C@H](C)NC(=O)[C@H](CCCCN)NC(=O)[C@H](C)NC(=O)[C@@H](NC(=O)[C@H](CC(N)=O)NC(=O)[C@H](Cc1ccccc1)NC(=O)[C@H](CC(C)C)NC(=O)[C@H](CC(C)C)NC(=O)[C@H](CC(N)=O)NC(=O)[C@H](CCSC)NC(=O)[C@@H](NC(=O)[C@H](CC(N)=O)NC(=O)[C@@H](NC(=O)[C@@H]1CCCN1C(=O)[C@@H](NC(=O)[C@H](CC(=O)O)NC(=O)[C@H](CC(C)C)NC(=O)[C@H](CO)NC(=O)[C@H](CC(C)C)NC(=O)[C@@H](NC(=O)[C@H](Cc1ccccc1)NC(=O)[C@H](CCCCN)NC(=O)[C@@H](N)[C@@H](C)O)[C@@H](C)O)C(C)C)[C@@H](C)O)[C@@H](C)CC)[C@@H](C)CC)C(N)=O
B8: Cys-variant of stresscopin peptide with N-Ethylsuccinimide (NES) reactive group, SEQ ID NO: 51 (peptide)
peptide: TKFTLSLDVPTNIMNLLFNC(Succinimide(1-Et,3-yl))AKAKNLRAQAAANAHLMAQI-NH2
modifications: N-terminus assumed
SMILES: CC[C@H](C)[C@H](NC(=O)[C@H](CCC(N)=O)NC(=O)[C@H](C)NC(=O)[C@H](CCSC)NC(=O)[C@H](CC(C)C)NC(=O)[C@H](Cc1c[nH]cn1)NC(=O)[C@H](C)NC(=O)[C@H](CC(N)=O)NC(=O)[C@H](C)NC(=O)[C@H](C)NC(=O)[C@H](C)NC(=O)[C@H](CCC(N)=O)NC(=O)[C@H](C)NC(=O)[C@H](CCCNC(=N)N)NC(=O)[C@H](CC(C)C)NC(=O)[C@H](CC(N)=O)NC(=O)[C@H](CCCCN)NC(=O)[C@H](C)NC(=O)[C@H](CCCCN)NC(=O)[C@H](C)NC(=O)[C@H](CSC1CC(=O)N(CC)C1=O)NC(=O)[C@H](CC(N)=O)NC(=O)[C@H](Cc1ccccc1)NC(=O)[C@H](CC(C)C)NC(=O)[C@H](CC(C)C)NC(=O)[C@H](CC(N)=O)NC(=O)[C@H](CCSC)NC(=O)[C@@H](NC(=O)[C@H](CC(N)=O)NC(=O)[C@@H](NC(=O)[C@@H]1CCCN1C(=O)[C@@H](NC(=O)[C@H](CC(=O)O)NC(=O)[C@H](CC(C)C)NC(=O)[C@H](CO)NC(=O)[C@H](CC(C)C)NC(=O)[C@@H](NC(=O)[C@H](Cc1ccccc1)NC(=O)[C@H](CCCCN)NC(=O)[C@@H](N)[C@@H](C)O)[C@@H](C)O)C(C)C)[C@@H](C)O)[C@@H](C)CC)C(N)=O

Target: T1, human CRH receptor type 2
Assay: cell-based or functional assay

Log DR against h-SCP, cAMP	pA50, cAMP	Binder
0.04 log10 ratio	9.43 -log M	B1
1.1 log10 ratio	8.64 -log M	B2
-0.03 log10 ratio	9.5 -log M	B3
1.9 log10 ratio	7.84 -log M	B4
0.03 log10 ratio	9.44 -log M	B5
0.11 log10 ratio	9.36 -log M	B6
-0.01 log10 ratio	9.48 -log M	B7
0.68 log10 ratio	8.79 -log M	B8
